Assay [1] addresses T1, His-tagged ectodomain of B. bronchiseptica pertactin (Prn-E; residues 38-640) (B. bronchiseptica, UniProt Q03035 38-640).
T1 construct: Pertactin of B. bronchiseptica, 60 kDa ectodomain, residues 38-640 of the 93 kDa precursor; the loop deletion mutants carry an N-terminal His tag from pET28b; also called wild-type Prn-E; His-tagged Prn-E
T1 sequence: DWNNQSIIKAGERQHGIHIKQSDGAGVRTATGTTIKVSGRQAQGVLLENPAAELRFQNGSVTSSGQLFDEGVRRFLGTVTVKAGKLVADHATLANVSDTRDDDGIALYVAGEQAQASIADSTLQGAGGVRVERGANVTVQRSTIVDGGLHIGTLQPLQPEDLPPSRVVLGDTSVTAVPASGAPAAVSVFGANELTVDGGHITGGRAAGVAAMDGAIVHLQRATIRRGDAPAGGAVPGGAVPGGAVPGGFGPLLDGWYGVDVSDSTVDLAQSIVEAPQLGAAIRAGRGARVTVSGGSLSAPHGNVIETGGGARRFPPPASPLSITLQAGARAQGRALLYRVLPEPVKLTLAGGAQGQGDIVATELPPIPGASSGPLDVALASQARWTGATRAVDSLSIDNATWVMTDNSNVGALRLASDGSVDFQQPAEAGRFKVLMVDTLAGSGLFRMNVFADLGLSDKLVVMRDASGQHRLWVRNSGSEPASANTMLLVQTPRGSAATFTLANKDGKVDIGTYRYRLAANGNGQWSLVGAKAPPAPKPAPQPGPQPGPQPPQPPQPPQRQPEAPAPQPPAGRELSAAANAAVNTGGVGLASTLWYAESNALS
As to the kind of experiment: crystal structure; Mtd-P1·Prn-E complex formed with ~1.6-fold molar excess of Mtd-P1 trimers over His-tagged Prn-E, isolated by Ni2+-chelation and Superdex 200; crystals at 25 °C in 2 M NaCl, 100 mM Tris pH 8.5, 200 mM Li2SO4; 3.16 Å. The note with it: both partners purified.

Assay [2] deals with T2, Biotinylated Prn-E (pertactin residues 38-640 with N-terminal biotinylation sequence) (B. bronchiseptica, UniProt Q03035 38-640, biotin (in vivo biotinylation of the N-terminal biotinylation sequence)).
T2 construct: Pertactin of B. bronchiseptica, ectodomain residues 38-640; also called immobilized pertactin
T2 sequence: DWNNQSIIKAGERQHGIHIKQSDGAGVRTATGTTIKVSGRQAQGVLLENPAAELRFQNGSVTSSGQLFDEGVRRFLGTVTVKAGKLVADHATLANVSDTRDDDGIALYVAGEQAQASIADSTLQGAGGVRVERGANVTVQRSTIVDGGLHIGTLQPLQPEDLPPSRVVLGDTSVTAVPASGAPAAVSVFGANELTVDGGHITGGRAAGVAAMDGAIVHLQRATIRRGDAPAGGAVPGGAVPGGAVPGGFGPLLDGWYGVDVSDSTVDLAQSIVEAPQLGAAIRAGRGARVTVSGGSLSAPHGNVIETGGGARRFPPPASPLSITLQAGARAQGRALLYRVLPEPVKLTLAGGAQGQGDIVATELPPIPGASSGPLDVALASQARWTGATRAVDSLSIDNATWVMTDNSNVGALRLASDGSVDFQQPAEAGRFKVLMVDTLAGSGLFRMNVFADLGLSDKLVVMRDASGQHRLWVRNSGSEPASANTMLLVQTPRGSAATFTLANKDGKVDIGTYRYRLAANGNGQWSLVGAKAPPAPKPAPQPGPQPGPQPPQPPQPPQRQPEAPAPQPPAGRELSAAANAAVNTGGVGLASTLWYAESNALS
As to the kind of experiment: SPR; Biacore 3000, 25 °C; ~100 RU biotinylated Prn-E on a streptavidin chip; Mtd proteins injected in 150 mM NaCl, 50 mM Tris pH 8.0, 0.005% Tween 20 at 30 μl/min; single-site model, global fit, six concentrations, duplicate. The note with it: both partners purified.

Assay [3] deals with T2, Biotinylated Prn-E (pertactin residues …). As to the kind of experiment: SPR; Biacore 3000, 25 °C; ~100 RU biotinylated Prn-E on a streptavidin chip; whole phage injected (BPP-1 ~1.2-3.7 × 10^-15 M, BPP-6 ~1-2 × 10^-16 M, BIP-1 8.3 × 10^-16 to 8.3 × 10^-15 M, BMP-1 e.g. 3.68 × 10^-15 M); multivalent; single-site model, global fit. The note with it: one partner purified. In general terms: Surface plasmon resonance follows binding to a sensor surface in real time, without labels.

B1: Bordetella bacteriophage major tropism determinant variant Mtd-P1 (natural protein)
chain: MSTAVQFRGGTTAQHATFTGAAREITVDTDKNTVVVHDGATAGGFPLARHDLVKTAFIKADKSAVAFTRTGNATASIKAGTIVEVNGKLVQFTADTAITMPALTAGTDYAIYVCDDGTVRADSNFSAPTGYTSTTARKVGGFHYAPGSNAAAQAGGNTTAQINEYSLWDIKFRPAALDPRGMTLVAGAFWADIYLLGVNHLTDGTSKYNVTIADGSASPKKSTKFGGDGSAAYSDGAWYNFAEVMTHHGKRLPNYNEFQALAFGTTEATSSGGTDVPTTGVNGTGATSAWNIFTSKWGVVQASGCLWTWGNEFGGVNGASEYTANTGGRGSVYAQPAAALFGGAWNGTSLSGSRAALWYSGPSFSFAFFGARGVCDHLILE
notes: Major tropism determinant (Mtd), variant P1, expressed by Bordetella bacteriophage BPP-1; Mtd has 381 residues in total; trimer of 120 kDa
As to B1, the “stoichiometry N” value in assay [1] was 3 Mtd-P1 protomers per Prn-E. In assay [2], the dissociation constant (Kd) amounted to 3.47 ± 0.13 µM and the kon was ~10000 M⁻¹ s⁻¹.

B2: BPP-1 phage displaying Mtd-P1 (other)
chain: MSTAVQFRGGTTAQHATFTGAAREITVDTDKNTVVVHDGATAGGFPLARHDLVKTAFIKADKSAVAFTRTGNATASIKAGTIVEVNGKLVQFTADTAITMPALTAGTDYAIYVCDDGTVRADSNFSAPTGYTSTTARKVGGFHYAPGSNAAAQAGGNTTAQINEYSLWDIKFRPAALDPRGMTLVAGAFWADIYLLGVNHLTDGTSKYNVTIADGSASPKKSTKFGGDGSAAYSDGAWYNFAEVMTHHGKRLPNYNEFQALAFGTTEATSSGGTDVPTTGVNGTGATSAWNIFTSKWGVVQASGCLWTWGNEFGGVNGASEYTANTGGRGSVYAQPAAALFGGAWNGTSLSGSRAALWYSGPSFSFAFFGARGVCDHLILE
notes: Major tropism determinant (Mtd), variant P1, at the ends of the tail fibers of whole BPP-1 phage; 381 residues; Whole phage particle; The other phage proteins are not written; also called BPP-1(Δbrt); source: phage harvested from B. bronchiseptica RB50 cultures, concentrated by centrifugation and ultrafiltration
The molecule B2 displayed a Kd in assay [3] of 6.89 ± 1.77 pM.

Broadly, the Kd is the free concentration of one partner at which half of the binding sites on the other are occupied at equilibrium, for simple one-to-one binding. Read a high Kd as weaker binding. A word on the kon: it is the rate constant with which the complex forms. Lower therefore signals slow association.

For the origin of these results see paper PMC2408619, “Selective Ligand Recognition by a Diversity-Generating Retroelement Variable Protein” (PLoS Biology, 2008).
